Publication PMC10786891, “Massively parallel profiling of RNA-targeting CRISPR-Cas13d”
Residue numbers refer to the chain shown, from its start. In names and notes the source's numbering stands.

T1: EsCas13d, nuclease-dead (Eubacterium siraeum, UniProt B0MS50, R295A;H300A;R849A;H854A)
T1 sequence: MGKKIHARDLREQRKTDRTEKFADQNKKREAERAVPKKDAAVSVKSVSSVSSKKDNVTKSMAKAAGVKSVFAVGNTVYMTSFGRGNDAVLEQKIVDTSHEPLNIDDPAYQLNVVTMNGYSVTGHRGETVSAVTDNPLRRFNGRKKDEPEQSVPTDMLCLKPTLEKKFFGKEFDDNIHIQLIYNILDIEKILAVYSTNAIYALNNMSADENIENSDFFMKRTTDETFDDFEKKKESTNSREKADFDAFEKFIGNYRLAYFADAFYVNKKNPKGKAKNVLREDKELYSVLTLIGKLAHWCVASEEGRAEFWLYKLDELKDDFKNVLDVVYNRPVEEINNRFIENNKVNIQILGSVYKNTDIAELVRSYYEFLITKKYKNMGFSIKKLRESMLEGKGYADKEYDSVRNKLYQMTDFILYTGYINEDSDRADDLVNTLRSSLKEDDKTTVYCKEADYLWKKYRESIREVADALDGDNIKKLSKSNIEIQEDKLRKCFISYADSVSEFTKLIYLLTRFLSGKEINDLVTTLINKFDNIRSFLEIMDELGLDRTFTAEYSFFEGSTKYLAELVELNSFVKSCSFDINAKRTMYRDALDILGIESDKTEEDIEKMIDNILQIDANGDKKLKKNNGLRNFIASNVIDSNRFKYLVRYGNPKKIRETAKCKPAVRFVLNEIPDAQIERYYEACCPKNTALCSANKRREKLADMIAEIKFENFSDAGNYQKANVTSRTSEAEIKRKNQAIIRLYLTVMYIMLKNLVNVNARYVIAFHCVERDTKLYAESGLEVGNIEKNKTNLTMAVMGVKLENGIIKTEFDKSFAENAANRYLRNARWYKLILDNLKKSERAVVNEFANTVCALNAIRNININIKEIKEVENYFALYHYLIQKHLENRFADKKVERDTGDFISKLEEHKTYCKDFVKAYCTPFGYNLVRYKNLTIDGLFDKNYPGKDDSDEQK

B1: target 1 insG 3' of 14,insA 3' of 12 (mixed)
RNA 1: CACCCGUGCAAAAAUGCAGGGGUCUAAAACUGAGCGGAUAACCUCUCUAUGG
RNA 2: GGGAAUGGAUCCACAUCUACGAAUUCGUACCAUAGAGAGGGAUUAUCCGCUCACCGAGAUCGGAAGAGCACACGU
B2: target 1 insC 3' of 13,insU 3' of 12 (mixed)
RNA 1: B1 RNA 1
RNA 2: B1 RNA 2 with G40C, A42U
B3: target 1 insG 3' of 9,insC 3' of 5 (mixed)
RNA 1: B1 RNA 1
RNA 2: B1 RNA 2 with G41U, A42U, U43A, U44G, A45U, U46C, C48G, G49C
B4: target 1 insU 3' of 18,insC 3' of 14 (mixed)
RNA 1: B1 RNA 1
RNA 2: B1 RNA 2 with G35U, A36G, G37A, A38G, G39A, G40C, A42G
B5: target 1 insC 3' of 19,insU 3' of 5 (mixed)
RNA 1: B1 RNA 1
RNA 2: GGGAAUGGAUCCACAUCUACGAAUUCGUACCAUCAGAGAGGUUAUCCGUCUCACCGAGAUCGGAAGAGCACACGU
B6: target 1 insC 3' of 19,insA 3' of 15 (mixed)
RNA 1: B1 RNA 1
RNA 2: B5 RNA 2 with G40A, U42G, A44U, U45A, C46U, G48C, U49G
B7: target 1 insG 3' of 16,insA 3' of 6 (mixed)
RNA 1: B1 RNA 1
RNA 2: B5 RNA 2 with C34A, A35G, G36A, A37G, G48A, U49G
B8: target 1 insA 3' of 10,insA 3' of 7 (mixed)
RNA 1: B1 RNA 1
RNA 2: B1 RNA 2 with G41U, A42U, U43A, U44A, A45U, U46C, C47A
B9: target 1 A1G,U11G (mixed)
RNA 1: B1 RNA 1
RNA 2: GGGAAUGGAUCCACAUCUACGAAUUCGUACCAUAGAGAGGGUAUCCGCUCGCCGAGAUCGGAAGAGCACACGU
B10: target 1 insA 3' of 7,insU 3' of 5 (mixed)
RNA 1: B1 RNA 1
RNA 2: B1 RNA 2 with G41U, A42U, U43A, A45C, U46A, C48G, G49U
B11: target 1 insA 3' of 22,insU 3' of 6 (mixed)
RNA 1: B1 RNA 1
RNA 2: B5 RNA 2 with C31A, A32C, U33A, C34U, G48U, U49G
B12: target 1 insG 3' of 7,insC 3' of 5 (mixed)
RNA 1: B1 RNA 1
RNA 2: B1 RNA 2 with G41U, A42U, U43A, A45C, U46G, C48G, G49C
B13: target 1 insC 3' of 19,insU 3' of 6 (mixed)
RNA 1: B1 RNA 1
RNA 2: B5 RNA 2 with G48U, U49G
B14: target 1 C4A,C22G (mixed)
RNA 1: B1 RNA 1
RNA 2: B9 RNA 2 with C30G, G41U, C48A, G51A
B15: target 1 insU 3' of 22,insC 3' of 3 (mixed)
RNA 1: B1 RNA 1
RNA 2: B5 RNA 2 with C31U, A32C, U33A, C34U, U49C, C50U, U51C
B16: target 1 G5A,G15C (mixed)
RNA 1: B1 RNA 1
RNA 2: B9 RNA 2 with G37C, G41U, G47A, G51A
B17: target 1 insC 3' of 14,insU 3' of 7 (mixed)
RNA 1: B1 RNA 1
RNA 2: B1 RNA 2 with G39C, A42U, U44A, A45U, U46C, C47U
B18: target 1 G12A,A14C (mixed)
RNA 1: B1 RNA 1
RNA 2: B9 RNA 2 with A38C, G40A, G41U, G51A
B19: target 1 U8C,U10C (mixed)
RNA 1: B1 RNA 1
RNA 2: B9 RNA 2 with G41U, U42C, U44C, G51A
B20: target 1 insA 3' of 3,insA 3' of 3 (mixed)
RNA 1: B1 RNA 1
RNA 2: B1 RNA 2 with G41U, A42U, U43A, A45C, U46C, C47G, G49U, C50A, U51A
B21: target 1 G13U,G15U (mixed)
RNA 1: B1 RNA 1
RNA 2: B9 RNA 2 with G37U, G39U, G41U, G51A
B22: target 1 insA 3' of 22,insU 3' of 5 (mixed)
RNA 1: B1 RNA 1
RNA 2: B5 RNA 2 with C31A, A32C, U33A, C34U
B23: target 1 insU 3' of 17,insC 3' of 5 (mixed)
RNA 1: B1 RNA 1
RNA 2: B5 RNA 2 with C34A, A35G, G36U, U49C
B24: target 1 insU 3' of 21,insU 3' of 21 (mixed)
RNA 1: B1 RNA 1
RNA 2: B1 RNA 2 with A32U, G35U, G40A, A42G
B25: target 1 C6A,U8G (mixed)
RNA 1: B1 RNA 1
RNA 2: B9 RNA 2 with G41U, U44G, C46A, G51A
B26: target 1 C7A,U8A (mixed)
RNA 1: B1 RNA 1
RNA 2: B9 RNA 2 with G41U, U44A, C45A, G51A
B27: target 1 insA 3' of 12,insA 3' of 11 (mixed)
RNA 1: B1 RNA 1
RNA 2: B1 RNA 2 with G41A, A42U, U43A
B28: target 1 insU 3' of 22,insA 3' of 22 (mixed)
RNA 1: B1 RNA 1
RNA 2: B1 RNA 2 with C31U, U33C, G35U, G40A, A42G
B29: target 1 G13A,G15U (mixed)
RNA 1: B1 RNA 1
RNA 2: B9 RNA 2 with G37U, G39A, G41U, G51A
B30: target 1 C4G,G12C (mixed)
RNA 1: B1 RNA 1
RNA 2: B9 RNA 2 with G40C, G41U, C48G, G51A
B31: target 1 G5C,C21A (mixed)
RNA 1: B1 RNA 1
RNA 2: B9 RNA 2 with C31A, G41U, G47C, G51A
B32: target 1 insC 3' of 20,insG 3' of 19 (mixed)
RNA 1: B1 RNA 1
RNA 2: B1 RNA 2 with U33C, A34U, G40A, A42G
B33: target 1 insG 3' of 9,insG 3' of 4 (mixed)
RNA 1: B1 RNA 1
RNA 2: B1 RNA 2 with G41U, A42U, U43A, U44G, A45U, U46C, C48G, G49C, C50G
B34: target 1 U11C,A20U (mixed)
RNA 1: B1 RNA 1
RNA 2: B9 RNA 2 with A32U, G41C, G51A

Target: T1, EsCas13d, nuclease-dead
Test: crRNA (strand 1, pre-loaded); Mg2+; 40 mM Tris-HCl pH 7.5, 150 mM NaCl, 6 mM MgCl2, 1 mM DTT, 0.1% Tween-20, 0.2 mg/ml BSA; 25 C; 10 min per concentration, then washed
Conditions: tags: His6-TwinStrep-SUMO cleaved; N-terminal SNAP kept (SNAP-Surface 488); label: 3' end held by stalled T7 RNA polymerase

Binder | Kd
B1 | 23.7 ± 1.7 nM
B2 | 11.1 ± 0.4 nM
B3 | 11.3 ± 0.5 nM
B4 | 73 ± 23 nM
B5 | 39 ± 13 nM
B6 | 36 ± 4 nM
B7 | 15 ± 0.6 nM
B8 | 10.4 ± 0.5 nM
B9 | 23.8 ± 1.6 nM
B10 | 11.4 ± 0.33 nM
B11 | 13.6 ± 0.6 nM
B12 | 9.8 ± 0.6 nM
B13 | 46.6 ± 2.9 nM
B14 | 25 ± 8 nM
B15 | 28 ± 6 nM
B16 | 54 ± 17 nM
B17 | 41 ± 8 nM

Binder | Kd
B18 | 30.5 ± 2.6 nM
B19 | 22.4 ± 1.3 nM
B20 | 7.5 ± 0.6 nM
B21 | 55 ± 19 nM
B22 | 28 ± 7 nM
B23 | 60 ± 14 nM
B24 | 72 ± 13 nM
B25 | 12.8 ± 0.7 nM
B26 | 7.41 ± 0.23 nM
B27 | 29 ± 5 nM
B28 | 4.11 ± 0.31 nM
B29 | 80 ± 40 nM
B30 | 18 ± 4 nM
B31 | 27 ± 5 nM
B32 | 47 ± 7 nM
B33 | 8.9 ± 0.6 nM
B34 | 55 ± 7 nM
